The text below walks through data of patent US20230051715A1 (MABWELL THERAPEUTICS, published 2023).

The target in assay [1] is T1, human C1s deletion mutant 3 (NHCΔ33) (human, UniProt P09871 16-404).
T1 construct: C-terminal 6xHis tag; also called human C1s (NHCΔ33); C1s (NHCΔ33)
T1 sequence: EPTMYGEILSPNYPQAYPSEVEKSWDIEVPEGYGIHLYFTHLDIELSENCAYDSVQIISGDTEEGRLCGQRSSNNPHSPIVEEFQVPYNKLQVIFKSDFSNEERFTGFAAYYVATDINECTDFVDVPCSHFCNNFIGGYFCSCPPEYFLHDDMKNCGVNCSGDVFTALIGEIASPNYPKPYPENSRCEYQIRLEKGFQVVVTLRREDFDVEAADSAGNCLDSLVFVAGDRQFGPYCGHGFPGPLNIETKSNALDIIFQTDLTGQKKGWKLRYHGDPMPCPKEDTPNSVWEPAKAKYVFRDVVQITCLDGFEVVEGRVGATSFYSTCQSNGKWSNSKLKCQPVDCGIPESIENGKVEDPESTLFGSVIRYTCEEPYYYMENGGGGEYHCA
Nature of the assay: ELISA, C1s fragment coated on plate; hz2-8(H1L2 G80A), first of the two values. Here is the method:
(§1) ELISA was carried out by first coating 96-well plates with 200 ng/well of full-length or truncated C1s proteins overnight. The next morning, plates were blocked with SuperBlock T20 blocking buffer (Thermo Scientific 37536) for 1 h with gentle shaking. Then, various concentrations of anti-C1s antibodies diluted in SuperBlock T20 blocking buffer were added to the plates and incubated for 1 h with gentle shaking. Mouse IgG (Sigma-Aldrich 15381) and human IgG1 (BioXCell BP0297) were used as negative controls. The plates were washed before incubating with HRP conjugated secondary antibodies diluted in SuperBlock T20 blocking buffer (goat anti-mouse IgG (H+L) cross-adsorbed secondary antibody HRP (Invitrogen G-21040) or goat anti-human IgG antibody, HRP conjugate (Millipore AP309P)) for 1 h with gentle shaking. At last, the plates were washed and color developed with ELISA liquid HRP substrate (Sigma-Aldrich), followed by stopping the reaction with addition of 1M H₂SO₄ in the same volume as the ELISA liquid substrate. Bound antibody was measured by absorbance at OD₄₅₀ₙₘ.
Binding of various anti-C1s antibodies to human C1s (NHCΔ33) (SEQ ID NO: 111) was carried out by ELISA as described in Example 4, and results are shown in FIG. 6A.

For assay [2], the target named is T2, human C1s mutant M9 (K336G, D343Y & E351A) (human, UniProt P09871 16-688).
T2 construct: The entry is the mutant itself
T2 sequence: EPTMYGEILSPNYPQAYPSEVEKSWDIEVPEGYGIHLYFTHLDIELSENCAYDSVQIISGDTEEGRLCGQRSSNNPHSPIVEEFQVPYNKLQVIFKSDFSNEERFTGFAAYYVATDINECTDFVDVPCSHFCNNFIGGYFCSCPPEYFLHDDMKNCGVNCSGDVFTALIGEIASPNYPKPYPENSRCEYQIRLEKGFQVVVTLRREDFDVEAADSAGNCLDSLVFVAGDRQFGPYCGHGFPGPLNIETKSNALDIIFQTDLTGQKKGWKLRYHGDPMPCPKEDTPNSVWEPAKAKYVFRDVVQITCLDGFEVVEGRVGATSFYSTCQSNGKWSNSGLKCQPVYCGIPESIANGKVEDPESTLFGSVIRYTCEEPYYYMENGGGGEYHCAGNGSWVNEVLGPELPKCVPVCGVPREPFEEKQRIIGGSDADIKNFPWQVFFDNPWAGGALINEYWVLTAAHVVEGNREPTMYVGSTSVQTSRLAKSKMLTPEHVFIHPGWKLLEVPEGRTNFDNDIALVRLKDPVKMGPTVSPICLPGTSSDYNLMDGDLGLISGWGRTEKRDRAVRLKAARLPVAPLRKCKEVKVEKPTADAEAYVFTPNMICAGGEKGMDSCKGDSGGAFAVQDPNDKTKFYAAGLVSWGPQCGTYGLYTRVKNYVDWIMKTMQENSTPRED
Nature of the assay: ELISA, plate coated with human C1s mutant M9: K336G, D343Y, E351A, OD450nm. Here is the method:
as §1
Binding of anti-C1s antibodies to mutants M1-M20 of human C1s was measured by ELISA as described in Example 4, and results are shown in FIGS. 6B-6U. […]

Assay [3] deals with T3, full-length human C1s (produced in house) (human, UniProt P09871 16-688).
T3 construct: Called full-length; Partly auto-cleaved at R422-I423 on blots; also called HuC1s; Hu C1s
T3 sequence: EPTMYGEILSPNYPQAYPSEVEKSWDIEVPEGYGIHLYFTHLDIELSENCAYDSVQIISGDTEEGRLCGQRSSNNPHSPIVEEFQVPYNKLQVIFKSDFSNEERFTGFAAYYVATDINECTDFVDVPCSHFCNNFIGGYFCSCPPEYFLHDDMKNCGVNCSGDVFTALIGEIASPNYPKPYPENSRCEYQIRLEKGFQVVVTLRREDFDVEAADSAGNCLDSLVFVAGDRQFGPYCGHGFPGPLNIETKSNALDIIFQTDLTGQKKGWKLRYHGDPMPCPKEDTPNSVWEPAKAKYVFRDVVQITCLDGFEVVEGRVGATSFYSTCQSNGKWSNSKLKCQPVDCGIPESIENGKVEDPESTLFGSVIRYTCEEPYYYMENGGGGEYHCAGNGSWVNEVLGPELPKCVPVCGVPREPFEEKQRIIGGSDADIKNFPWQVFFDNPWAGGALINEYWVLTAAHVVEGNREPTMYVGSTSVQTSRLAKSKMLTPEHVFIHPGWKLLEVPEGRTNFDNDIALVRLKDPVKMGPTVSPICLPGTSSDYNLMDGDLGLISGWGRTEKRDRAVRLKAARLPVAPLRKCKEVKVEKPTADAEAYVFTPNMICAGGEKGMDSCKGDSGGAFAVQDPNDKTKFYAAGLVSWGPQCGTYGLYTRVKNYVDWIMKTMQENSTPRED
Nature of the assay: BLI (Octet RED96e), antibody on AHC biosensor; C1s Species: Human; R^2 0.9999. From the text:
At last, analyte was dissociated in 1×KB for 360 sec. Data analysis was done using OCTET® Data Analysis HT Software (Sartorius AG).

B1: Anti-C1s antibody hz2-8 (H1L2 G80A) (antibody, V domains shown)
VH: QVQLVQSGAEVKKPGASVKVSCKASGFNIKEYYMHWVRQAPEQGLEWMGWIDPENADTIYAQKFQGRVTITADTSTNTAYMELSSLRSEDTAVYYCARSRLFFAYWGQGTLVTVSS
VL: DIQMTQSPKSLSASVGDRVTITCRASQDVRTALDWYQQKPGQSPKLLIYSASYRYSGVPSRFSGSGSGTDFTLTISSLQPEDFATYYCQQQYTTPYTFGQGTKLEIKR
notes: Humanized variant with G80A in HC CDR2 (already in the entry), human IgG1 / kappa
B1: the midpoint of the response in assay [1], the EC50, lay at 8 ng/mL.

B2: Anti-C1s antibody hz2-8 (H1L2 G80A/T82A) (antibody, V domains shown)
VH: QVQLVQSGAEVKKPGASVKVSCKASGFNIKEYYMHWVRQAPEQGLEWMGWIDPENADAIYAQKFQGRVTITADTSTNTAYMELSSLRSEDTAVYYCARSRLFFAYWGQGTLVTVSS
VL: DIQMTQSPKSLSASVGDRVTITCRASQDVRTALDWYQQKPGQSPKLLIYSASYRYSGVPSRFSGSGSGTDFTLTISSLQPEDFATYYCQQQYTTPYTFGQGTKLEIKR
notes: Humanized variant with G80A and T82A in HC CDR2 (already in the entry), human IgG1 / kappa
B2: the binding result in assay [2] is on record as “no binding (tested: 1000 ng/ml (Log 3))”.

B3: Anti-C1s antibody hz2-7(H1L2) (antibody, V domains shown)
VH: EVQLLESGGGLVQPGGSLRLSCAASGFTFSNYFMNWVRQAPGKGLEWVSEIRLKFTNYATHYADSVKGRFTISRDDSKSTLYLQMNSLRAEDTAVYYCTRDYGSRNGYFDYWGQGTLVTVSS
VL: DIVMTQTPLSLPVTPGEPASISCRSSKSLLHSNGNTFLYWFLQKPGQSPQLLIYRMSNLASGVPDRFSGSGSGTDFTLKISRVEAEDVGVYYCMQHLEYPYTFGGGTKLEIKR
notes: Humanized, human IgG1 / kappa; also called hz2-7(1L2)
Regarding B3, in assay [3], binding was characterised by a dissociation constant (Kd) of 0.12 nM, the off-rate constant (koff) came to 4.6e-05 s⁻¹ and the kon turned out to be 390000 M⁻¹ s⁻¹.
